Measurements reported in patent US20180224449A1.
Ends that are not written are not given here.

biological target: OprF outer membrane protein on P. stutzeri cells (P. stutzeri); assay: fluorometry at 525 nm of 1x10^9 P. stutzeri cells labeled with peptide-QD525 conjugate

Binder	Fluorescence (RFU)
QITLRST (conjugated to a quantum dot (QD525)) [OBP7 peptide-quantum dot conjugate]	2620
QMLLRLP (conjugated to a quantum dot (QD525)) [OBP9 peptide-quantum dot conjugate]	3340
RRSNSQL (conjugated to a quantum dot (QD525)) [OBP4 peptide-quantum dot conjugate]	4520
NMTNPPP (conjugated to a quantum dot (QD525)) [OBP6 peptide-quantum dot conjugate]	2080

biological target: Opr86 outer membrane protein on P. stutzeri cells (P. stutzeri); assay: as above

Binder	Fluorescence (RFU)
PRIRKSH (also: conjugated to quantum dot) [OPP1 peptide-quantum dot conjugate]	12300
MHNLNLL (conjugated to a quantum dot (QD525)) [OPP2 peptide-quantum dot conjugate]	1850
LPSTIHR (conjugated to a quantum dot (QD525)) [OPP3 peptide-quantum dot conjugate]	2250
LRPLMNR (conjugated to a quantum dot (QD525)) [OPP4 peptide-quantum dot conjugate]	1380
IITMKRR (conjugated to a quantum dot (QD525)) [OPP5 peptide-quantum dot conjugate]	4410
RKKSRIR (conjugated to a quantum dot (QD525)) [OPP6 peptide-quantum dot conjugate]	4130

biological target: Opr86 outer membrane protein on A. venetianus cells (A. venetianus); assay: fluorometry of cells recovered from spiked 1 L Jet A fuel and labeled with 1.5 uM peptide-QD545, at the LOD of 5 x 10^5 CFU

Binder	Fluorescence (RFU)
PRIRKSH (also: conjugated to quantum dot) [OPP1 peptide-quantum dot conjugate]	773

biological target: Opr86 outer membrane protein on P. stutzeri cells (P. stutzeri); assay: as above

Binder	Fluorescence (RFU)
PRIRKSH (also: conjugated to quantum dot) [OPP1 peptide-quantum dot conjugate]	820
